# From publication PMC11148769
# Target: BA.2.12.1 S trimer (SARS-CoV-2) (UniProt P0DTC2)
# Assay: cryo-EM structure
substance,measurement,value
BA.2.12.1 S trimer (from UniProt P0DTC2 28-1208) (natural protein),stoichiometry N,3
